# Measured values reported in PMC7105138, “Modeling cancer genomic data in yeast reveals selection against ATM function during tumorigenesis” (PLoS Genetics, 2020).
# What was measured:
# Experiment in all cases: EMSA
# Details in all cases: ATP, 5 mM Mg2+, 150 mM NaCl; 25 mM Tris-Cl pH 7.6, 150 mM NaCl (also 50, 250, 300 mM), 7.5% glycerol, 1 mM beta-mercaptoethanol, 0.125% Igepal, 5 mM MgCl2, with or without 5 mM ATP; 5 nM …
# [1] = tested on: Rad50-L1240F-I23V (Saccharomyces cerevisiae)
# [2] = tested on: Rad50-D67N (Saccharomyces cerevisiae)
# [3] = tested on: Rad50-L1240F (Saccharomyces cerevisiae)
# [4] = tested on: Rad50-D67Y (Saccharomyces cerevisiae)
substance,measurement,setting,value
83-mer dsDNA oligonucleotide,Kd,[1],> 800 nM
same,Kd,[2],200 nM
same,Kd,[3],> 800 nM
same,Kd,[4],320 nM
